This note sets out measurements from US20200318093A1.

Data set [1] has as its target casein sodium ("MIPRODAN", Nippon Shinyaku). Briefly: cell-based or functional assay.
The target is the same in data set [2]. Briefly: cell-based or functional assay. This is another data set of the same source.
Data set [3] has the same target.
Data set [4] deals with fish-derived gelatin (Nippi).
Data set [5] deals with skim milk powder (Yotsuba Milk Products, low heat type).
The target in data set [6] is porcine-derived acidic gelatin (Sigma).
The target of data set [7] is T1, ovalbumin (Sigma), P01012.
T1 chain: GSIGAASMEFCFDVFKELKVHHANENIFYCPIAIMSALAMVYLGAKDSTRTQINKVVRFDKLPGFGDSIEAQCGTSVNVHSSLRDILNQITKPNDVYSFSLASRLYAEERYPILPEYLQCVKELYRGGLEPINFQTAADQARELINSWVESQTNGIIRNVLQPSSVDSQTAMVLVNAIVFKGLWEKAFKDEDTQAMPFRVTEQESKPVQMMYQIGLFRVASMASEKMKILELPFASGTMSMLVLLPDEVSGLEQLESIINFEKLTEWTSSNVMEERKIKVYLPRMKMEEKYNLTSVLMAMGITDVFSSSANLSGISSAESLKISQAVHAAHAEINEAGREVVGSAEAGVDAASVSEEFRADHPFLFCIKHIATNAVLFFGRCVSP

Data set [8] has as its target α-casein (Sigma).
Data set [9] concerns the target bovine-derived alkaline gelatin (Sigma).
The target of data set [10] is cornmeal gluten (Sigma).
Data set [11] concerns the target Rice proteins.
Data set [12] deals with milk whey protein ("BiPro", Davisco).
Data set [13] deals with α-lactalbumin (Sigma).
Data set [14] addresses Soybean proteins.
In data set [15] the target is Insulin B chain (Sigma).

As to “protein asparaginase of Leifsonia xyli AJ111071 (NITE P-01649) (enzyme)”, the released ammonia (3 h reaction with culture supernatant, control subtracted) in data set [1] is 0.289 mM.

B1: protein asparaginase of Luteimicrobium album AJ111072 (NITE P-01650) (protein)
chain: AVTADDGSTPGTAAYLEDDYDFGDQAVPLANIGGIRGEMTGRIYLPTTAGAHPTVILLHGRHSSCTVPTGGGSVSNPNRWPCIAPQVNIPSYKGYESTAQNLATHGYAVVSISANAINANDNQLAPDYGAQARGQLVLDTLAMLRKANAGEPVSFHDAATDRTVDLASALAVSTEAEDLGSAPTSATNPGDAITPADLVGAFDLDDVGLMGHSRGGEGVVSAVNLNQKLAKPFGIKSVLPLAPVDFGRETAADTNMLVILPYCDGDVSNQQGQHFSDDSRYAYDDDSLRSTLWVMGADHNFFNSVWTPGKYPLSTSDDWGATSTDAVCGPLAPTNVRLSADDQYDVGVAVMSAWFRLTLGGEDQFLPLFDGSADPTLTSVPSAKLWSTATAPATKRADIEAFTANTSRVRVYGSATESVCASAGGRTLPQDAQPCATASALRSTSAMPHWTPASFAPNVPASPMGRFLWTSVSGSTAGSIRVTVPAAARDASEQDALTFKTAPDESVLTGTDLTVTVVDGHGATWSSAVSALNAGAVKRLPISGSTTLNKIVLQQVSVPVSTLAGSIDVSDVREVRFAGATGADGTATGGAYLSDLAFVSSGVGTVAGIASVPTVNVASTVVEEGSSVDEARVAVVLDQPADRTVSAWFTLMGSTADSSNAGLAAQKVTFQPGQTCQAVTVTILGNTVAGAAATTAYKADVSAPDGVIVGAAQFGTFTVREDDALTSGGALAPAVGTQGDVCAEYAARSVVQELTTSGDAVAGSHVTLTGSGYRVGESVAFTDGDAVLGTVLAGADGTAALDWAVPADARVGGHDVTAVGAGSARTAKATVTVRSATTTTLAIAPAAPAVGKAVTLTATVAGPDTAGTVTFADGSTVLGRVAVKDGRAALVVSGGFDAGTHTLTAAFGQTATAEGSVSPAVTFTLVKGKTTTVFVLAATRTTYGTAVAGRIVVGGADGGVATITVGNVVRSVRLDAHGAGSFTVPGTLKPATYRVTASYAGSRTLDTSSARASLTVLKAAPKVTLSAPATARKGATVTVTVKVVGVKGGVRPTGKAVVKLGGKAVKTVSVPSSGVVKVKVRLASAGTAKVTAAYQGSAYYTAASAAAKVKVKVVTK
Turning to B1, the released ammonia amount (0.68 U/ml enzyme solution) in data set [2] turned out to be 1 mM. Moreover, the released ammonia amount (2.7 U/ml enzyme solution) in [2] amounted to 1.3 mM. The Amount of generated ammonia in data set [3] came out at 2.98 mM; in data set [4], 1.27 mM; in data set [5], 1.22 mM; in data set [6] it was 2.23 mM; in [7], 0.01 mM; in data set [8], 4.69 mM. Also, the Amount of generated ammonia amounted to 0.73 mM in [9]; 0.41 mM in [10]; 0.04 mM in data set [11]; 1.17 mM in data set [12]; 1.84 mM in data set [13]; 0.98 mM in data set [14].

B2: protein asparaginase of Leifsonia xyli AJ111071 (NITE P-01649) (protein)
chain: LPVRRRIALTVAAALIPVVALTTAPAALAAPAPDPVVASGSDWAVTTSPGGYLVTLDLDEPLPMVDDAPTLVVDGEPIGLATESADGLTLGVVTTDPAVASASSVTKGWSSGADDKAAETPEAPATPAVPENTTLTEQLKSFAQLVAVEDPADLGSYTVTEAEYDFGDQAVPLAAIGGIRGELTGKMYLTNATGARPTVVLLHGRHTSCSGTGANPLRWPCGPTQMNIRSYLGYEGTARALASRGYNVLSIAANAVNSNDNQLALDYGAQARGRLVLDTLGMLAKATAGDAVAYDDITTATDTVPSTTTTRTLDEALLRATTRADQPAAASGITAASLKGRFDLGHVGIMGHSRGGEGVVSAATLNQALAKPYGIESVLPLAPVDFGRMTLPDVPTAVFLPYCDGDVSNQQGQHFIDDSRHAFDDDVLRSAVWVMGANHNFFNTVWTPGLYPAATGDDWRTTDTTSTCATTNPTRMTAAQQYQVGVSYMTGFFRLTMGGETRFQSLFDGSVKPSTASTAYADVRTMATQPASKTSLVNDFTETSSLVRVSGGATAAVCTNLTGRTVPQSLPFCATTKASAQVPHWTPGSFAPNVPEFPVTRFLWTGASTTDPAVPSTGELRVTVPAKDRDASRHSQLTLKTAPDEAVQTGTDFRITVVDGAGKTFATTASAVNPLAVNRMPGGTNTTLNKVVLQQLTIPTSTITGIDLTDVREVRLTAAIGADGTGTGGVYLSDLAFDTPSVGTAVAQTRTTVNVAPTTVEEGDGPGTADVAVYLNRAEKSAVTAYVSVIGSATAAVGIGMEKVAFAPGETCKAVTVPTLGNTATSAAPSSAFKVSVTNSTNAVMGASAFANLTVREDDGVTGAAPALAPVGAQGDVCTELAAATTPVPLETSAEDVAPGGSFTLRATGYRAGETVAFRYGATDLGTQVAATDGTASVVVTVPEDADLGPAEATASGSGSGRAATVSVSVLAPTETTVTVTPAKPTAGQ
With B2, the “N-terminus sequence of the insulin B chain after 8 h reaction (protein sequencer)” value in data set [15] is reported as “asparagine of the third residue from the N-terminus of the insulin B chain was converted into aspartic acid by deamidation”.
